Assay results as given in IntAct's records for PubMed 29039417.

B1: BBSome complex member BBS2 (Homo sapiens), Q9BXC9 (parent)
chain: MLLPVFTLKLRHKISPRMVAIGRYDGTHPCLAAATQTGKVFIHNPHTRNQHVSASRVFQSPLESDVSLLSINQAVSCLTAGVLNPELGYDALLVGTQTNLLAYDVYNNSDLFYREVADGANAIVLGTLGDISSPLAIIGGNCALQGFNHEGSDLFWTVTGDNVNSLALCDFDGDGKKELLVGSEDFDIRVFKEDEIVAEMTETEIVTSLCPMYGSRFGYALSNGTVGVYDKTSRYWRIKSKNHAMSIHAFDLNSDGVNELITGWSNGKVDARSDRTGEVIFKDNFSSAIAGVVEGDYRMDGHIQLICCSVDGEIRGYLPGTAEMRGNLMDTSAEQDLIRELSQKKQNLLLELRNYEENAKAELASPLNEADGHRGIIPANTRLHTTLSVSLGNETQTAHTELRISTSNDTIIRAVLIFAEGIFTGESHVVHPSIHNLSSSICIPIVPPKDVPVDLHLKAFVGYRSSTQFHVFESTRQLPRFSMYALTSLDPASEPISYVNFTIAERAQRVVVWLGQNFLLPEDTHIQNAPFQVCFTSLRNGGHLHIKIKLSGEITINTDDIDLAGDIIQSMASFFAIEDLQVEADFPVYFEELRKVLVKVDEYHSVHQKLSADMADHSNLIRSLLVGAEDARLMRDMKTMKSRYMELYDLNRDLLNGYKIRCNNHTELLGNLKAVNQAIQRAGRLRVGKPKNQVITACRDAIRSNNINTLFKIMRVGTASS
partner: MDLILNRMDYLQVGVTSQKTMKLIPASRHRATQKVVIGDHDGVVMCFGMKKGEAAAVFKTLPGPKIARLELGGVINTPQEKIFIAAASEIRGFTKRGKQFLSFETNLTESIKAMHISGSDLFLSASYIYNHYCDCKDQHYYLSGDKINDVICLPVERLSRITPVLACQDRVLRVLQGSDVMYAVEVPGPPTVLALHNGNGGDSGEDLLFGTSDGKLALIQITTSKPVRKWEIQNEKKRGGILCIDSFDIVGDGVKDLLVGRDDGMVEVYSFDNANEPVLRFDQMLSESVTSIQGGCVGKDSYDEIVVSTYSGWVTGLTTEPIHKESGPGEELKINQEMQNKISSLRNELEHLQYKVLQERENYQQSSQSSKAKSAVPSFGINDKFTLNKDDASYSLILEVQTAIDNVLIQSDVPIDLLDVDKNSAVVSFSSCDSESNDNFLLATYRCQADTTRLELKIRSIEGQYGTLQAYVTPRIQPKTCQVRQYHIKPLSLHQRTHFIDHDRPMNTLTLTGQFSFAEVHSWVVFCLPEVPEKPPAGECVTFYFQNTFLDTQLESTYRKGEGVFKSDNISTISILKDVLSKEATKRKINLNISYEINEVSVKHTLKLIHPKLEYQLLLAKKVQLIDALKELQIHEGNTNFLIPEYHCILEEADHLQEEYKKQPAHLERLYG

Variants of: B1
Conditions: with BBS7, Q8IWZ6-2

Row | Variant | effect of a mutation on the interaction
1 | S332A | with no effect
2 | S332E | with no effect
3 | S332K | with no effect
4 | A333E | with no effect
5 | A333K | with no effect
6 | E334A | with no effect
7 | E334K | with no effect
8 | Q335A | with no effect
9 | Q335E | with no effect
10 | Q335K | with no effect
11 | D336A | with no effect
12 | D336E | with no effect
13 | D336K | with no effect
14 | L337A | with no effect
15 | L337E | with no effect
16 | L337K | with no effect
17 | I338A | with no effect
18 | I338E | with no effect
19 | I338K | with no effect
20 | R339A | with no effect
21 | R339E | with no effect
22 | R339K | with no effect
23 | E340A | with no effect

Row | Variant | effect of a mutation on the interaction
24 | E340K | with no effect
25 | L341A | with no effect
26 | L341E | with no effect
27 | L341K | with no effect
28 | S342A | with no effect
29 | S342E | with no effect
30 | S342K | with no effect
31 | Q343A | with no effect
32 | Q343E | with no effect
33 | Q343K | with no effect
34 | K344A | with no effect
35 | K344E | with no effect
36 | K345A | with no effect
37 | K345E | with no effect
38 | Q346A | with no effect
39 | Q346E | with no effect
40 | Q346K | with no effect
41 | N347A | with no effect
42 | N347E | with no effect
43 | N347K | with no effect
44 | L348A | with no effect
45 | L348E | with no effect
46 | L348K | with no effect

Row | Variant | effect of a mutation on the interaction
47 | L349A | with no effect
48 | L349E | with no effect
49 | L349K | with no effect
50 | L350A | with no effect
51 | L350E | with no effect
52 | L350K | with no effect
53 | E351A | with no effect
54 | E351K | with no effect
55 | L352A | with no effect
56 | L352E | with no effect
57 | L352K | with no effect
58 | R353A | with no effect
59 | R353E | with no effect
60 | R353K | with no effect
61 | N354A | with no effect
62 | N354E | with no effect
63 | N354K | with no effect
64 | Y355A | with no effect
65 | Y355E | with no effect
66 | Y355K | with no effect
67 | E356A | with no effect
68 | E356K | with no effect
69 | E357A | with no effect

Row | Variant | effect of a mutation on the interaction
70 | E357K | with no effect
71 | N358A | with no effect
72 | N358E | with no effect
73 | N358K | with no effect
74 | A359E | with no effect
75 | A359K | with no effect
76 | K360A | with no effect
77 | K360E | with no effect
78 | K360P | disrupting interaction strength
79 | A361E | with no effect
80 | A361K | with no effect
81 | E362A | with no effect
82 | E362K | with no effect
83 | L363A | with no effect
84 | L363E | with no effect
85 | L363K | with no effect
86 | A364E | with no effect
87 | A364K | with no effect
88 | S365A | with no effect
89 | S365E | with no effect
90 | S365K | with no effect
91 | P366A | with no effect
92 | P366E | with no effect

Row | Variant | effect of a mutation on the interaction
93 | P366K | with no effect
94 | L367A | with no effect
95 | L367E | with no effect
96 | L367K | with no effect
97 | N368A | with no effect
98 | N368E | with no effect
99 | N368K | with no effect
100 | E369A | with no effect
101 | E369K | with no effect
102 | A370E | with no effect
103 | A370K | with no effect
104 | D371A | with no effect
105 | D371E | with no effect
106 | D371K | with no effect
107 | G372A | with no effect
108 | G372E | with no effect
109 | G372K | with no effect
110 | H373A | with no effect
111 | H373E | with no effect
112 | H373K | with no effect
113 | R374A | with no effect
114 | R374E | with no effect
115 | R374K | with no effect

Row | Variant | effect of a mutation on the interaction
116 | G375A | with no effect
117 | G375E | with no effect
118 | G375K | with no effect
119 | I376A | with no effect
120 | I376E | with no effect
121 | I376F | disrupting interaction strength
122 | I376K | with no effect
123 | I377A | with no effect
124 | I377E | with no effect
125 | I377K | with no effect
126 | I377R | disrupting interaction strength
127 | P378A | with no effect
128 | P378E | with no effect
129 | P378K | with no effect
130 | A379E | with no effect
131 | A379K | with no effect
132 | N380A | with no effect
133 | N380E | disrupting interaction strength
134 | N380K | with no effect
135 | T381A | with no effect
136 | T381E | with no effect
137 | T381K | with no effect
138 | R382A | with no effect

Row | Variant | effect of a mutation on the interaction
139 | R382E | with no effect
140 | R382K | with no effect
141 | L383A | disrupting interaction strength
142 | L383E | disrupting interaction strength
143 | L383K | with no effect
144 | H384A | with no effect
145 | H384E | with no effect
146 | H384K | with no effect
147 | H384P | disrupting interaction strength
148 | T385A | with no effect
149 | T385E | disrupting interaction strength
150 | T385K | with no effect
151 | T386A | with no effect
152 | T386E | with no effect
153 | T386K | with no effect
154 | L387A | with no effect
155 | L387E | with no effect
156 | L387K | disrupting interaction strength
157 | S388A | with no effect
158 | S388E | with no effect
159 | S388K | with no effect
160 | V389A | with no effect
161 | V389E | with no effect

Row | Variant | effect of a mutation on the interaction
162 | V389K | disrupting interaction strength
163 | S390A | with no effect
164 | S390E | with no effect
165 | S390K | with no effect
166 | L391A | with no effect
167 | L391E | with no effect
168 | L391K | with no effect
169 | G392A | with no effect
170 | G392E | with no effect
171 | G392K | with no effect
172 | N393A | with no effect
173 | N393E | with no effect
174 | N393K | with no effect
175 | E394A | with no effect
176 | E394K | with no effect
177 | T395A | with no effect
178 | T395E | with no effect
179 | T395K | with no effect
180 | Q396A | with no effect
181 | Q396E | with no effect
182 | Q396K | with no effect
183 | T397A | with no effect
